According to patent CN113402607A (BEIJING EASTERN BIOTECH CO LTD, dated 2021):
Where a chain is given by its changes, count along the chain named.

B1: 抗LAP单克隆抗体 A-1 (全抗, mouse IgG2a / mouse Ck) (antibody, V domains shown)
VH: EVQLEQSGPELKKPGETVKISCKASGYTFTSYGMNWVKQAPGKALKWMGWINTYTGEPTYADDFKGRFAYSLEATANTAYLQIYNLKNEDTATYFCARSGRYTRPLYYIMDFWGQGTSVTVSS
VL: not shown
notes: Full antibody made in HEK293E from vector pTSE; also called A-1抗体
B2: 抗LAP单克隆抗体 A-3 (全抗, mouse IgG2a / mouse Ck) (antibody, V domains shown)
VH: EVKLQESGAELVMPGASVKMSCKASGYTFTDYWMHWVKQRPGQGLEWIGAIDTSDSYTSYNQKFKGKATLTVDESSSTAYMQLSSLTSEDSAVYYCARKALSGYFDVWGAGTTVTVSS
VL: DIVLTQTPSSLSASLGGKVTITCKASQDIYKYIAWYQHKPGKGPRLLIHYTSTLQPGIPSRFSGSGSGRDYSFSISNLEPEDIATYYCLQYDNLRTFGGGTKLEIKA
notes: Full antibody made in HEK293E from vector pTSE
B3: 抗LAP单克隆抗体 A-6 (全抗, mouse IgG2a / mouse Ck) (antibody, V domains shown)
VH: QVKLQESGPELVKPGASVKISCKASGYTFTDYNMHWVKQSHGKSLEWIGYFYPYNGGTGYKQKFKSKATLTVDNSSSTAYMELRSLTSEDSAVYYCARNHYYYYAMDYWGQGTSVTVSS
VL: DIVMTQTPSSLAVSAGEKVTMSCKSSQSLLNSRTRKNYLAWYQQKPGQSPKLLIYWASTRESGVPDRFTGSGSGTDFTLTISSVQAEDLAVYYCKQSYNLPWTFGGGTKLEIKA
notes: as for B2
B4: 抗LAP单克隆抗体 A-2 (全抗, mouse IgG2a / mouse Ck) (antibody, V domains shown)
VH: EVQLEESGAELVRSGASVKLSCTASGFNFNDYYMHWVKQRPEQGLEWIGWIDPENGDTEYAPKFQVKATMTADTSSNTAYLHLSSLASEDTAVYYCNTPTEDMDYWGQGTSVTVSS
VL: DIVMTQSPSSLAVSAGEKVTMSCKSSQSLFNSRTRKNYLAWYQQKPGQSPKLLIYWASTRGSGVPDRFTGSGSGTDFTLTISSVQAEDLAVYYCKQSYNLLTFGAGTKLELKA
notes: as for B2
B5: 抗LAP单克隆抗体 A-5 (全抗, mouse IgG2a / mouse Ck) (antibody, V domains shown)
VH: EVQLQQSGAVLVRPGDSVKLSCKASGYSFTRSWINWVKQRPGQGLEWIGNIYPSDSYTNYNQKFKDKATLTVDKSSSTAYMQLRSPTSEDSAVYYCTNYYLYYFDYWGQGTTLTVSS
VL: DIVLTQSPSSLAVSTGEKVTMSCKSSQSLLNSRTRKSYLAWYQQKPGQSPKLLIYWTSIRESGVPDRFTGNGSGTDFTLTISSVQAEDLAVYYCKQSYNLFTFGGGTKLEMKR
notes: as for B2
B6: 抗LAP单克隆抗体 A-4 (全抗, mouse IgG2a / mouse Ck) (antibody, V domains shown)
VH: EVKLQESGPGLVAPSQSLSITCTVSGFSLTTYGVSWVRQPPGKGLEWLGIIWGDGTTIYQSGLISRLSISKDDSKSQVFLKLSSLQTDDTATYYCAKHYFVMDYWGQGTSVTVSS
VL: B4 VL with M4L, S22N, F30L, T34I, G61E, L101W, A105G, L111I
notes: as for B2

Tests used:
[1] = target: LAP-TGFβ1抗原 (coated antigen) (UniProt P01137 30-390, limits assumed); assay: competition ELISA on coated LAP-TGFβ1; competitor biotin-labelled 28G11 at 1 μg/ml
[2] = target: LAP-TGFβ1 overexpressed on cells (过表达LAP-TGFβ1的CHO细胞) (UniProt P01137 30-390, limits assumed); assay: cell-based or functional assay
Chain of LAP-TGFβ1 overexpressed on cells (过表达LAP-TGFβ1的CHO细胞) (P01137 30-390 limits assumed): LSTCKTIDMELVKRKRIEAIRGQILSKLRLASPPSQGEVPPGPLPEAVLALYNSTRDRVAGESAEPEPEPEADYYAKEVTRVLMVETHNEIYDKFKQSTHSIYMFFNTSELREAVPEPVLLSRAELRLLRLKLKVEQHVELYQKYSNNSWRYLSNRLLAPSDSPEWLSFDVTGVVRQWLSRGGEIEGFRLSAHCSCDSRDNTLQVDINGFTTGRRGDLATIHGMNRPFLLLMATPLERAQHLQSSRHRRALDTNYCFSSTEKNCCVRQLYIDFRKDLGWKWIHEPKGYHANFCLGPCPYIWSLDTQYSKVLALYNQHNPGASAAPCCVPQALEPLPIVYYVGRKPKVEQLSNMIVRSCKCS

Chain of LAP-TGFβ1抗原 (coated antigen) (P01137 30-390 limits assumed): as above

Binder | IC50 [1] | IC50(μg/ml), 抑制细胞表面TGFβ1的释放 (PAI-LUC Mv.1.lu reporter cells, luciferase) [2]
B1 | 0.0972 µg/mL | 0.741 µg/mL
B2 | 0.00695 µg/mL | 
B3 | 0.0557 µg/mL | 
B4 | 0.0764 µg/mL | 
B5 | 0.0526 µg/mL | 1.69 µg/mL
B6 | 0.00805 µg/mL | 
